Legend:
[1] = biological target: T1, DNA-Binding Protein from Starved Cells (Dps) of Campylobacter coli (Campylobacter coli); test: sandwich immunochromatographic strip, immobilized CL30Camp and labeled CL30Camp, Dps at 0.75 ng/mL, read by eye after 10 min (+/- = weak positive response)
T1 construct: also called Dps of C. coli

[2] = biological target: T2, DNA-Binding Protein from Starved Cells (Dps) of Campylobacter jejuni (Campylobacter jejuni, UniProt Q0P891 1-149); test: sandwich immunochromatographic strip, immobilized CL30Camp and labeled CL30Camp, Dps at 1.85 ng/mL, read by eye after 10 min
T2 construct: also called Dps of C. jejuni

B1: CL30Camp monoclonal antibody (antibody, V domains shown)
VH: QVQLKQSGPGLVQPSQSLSITCTVSGFSLTSSGVHWVRQSPGKGLEWLGVIWRGGSTDYNAAFMSRLSITKDNSKSQVFFKMNSLQPDDTAIYYCAKNYYYGTSPDYFDYWGQGTTLTVSS
VL: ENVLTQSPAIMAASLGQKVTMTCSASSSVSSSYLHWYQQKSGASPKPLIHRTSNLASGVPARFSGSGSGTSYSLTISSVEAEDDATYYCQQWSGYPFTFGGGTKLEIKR
notes: also called CL30Camp/CL30Camp (immobilized/labeled pair in the test device)
B1: binds [1]; binds [2].
